# Results published in the DeepSol protein solubility set.
# Assay: soluble on expression in E. coli; label from the status in PepcDB or PDB records
row,Sequence,soluble on expression in E. coli
1,MSNSFEILMNQLGMPAEMRQAPALAQANIERVVVHKISKVWEFHFVFSNILPIEIFLELKKGLSEEFSKTGNKAVFEIKARSQEFSNQLLQSYYREAFSEGPCASQGFKSLYQNLQVRAEGNQLFIEGSEAIDKEHFKKNHLPNLAKQLEKFGFP,not soluble
2,MTNWLIAYQGEPGAYSEIAALRFGEPLPCESFDDVFSAVTEQKADYAVIPIENSLGGSIHQNYDLLLRRPVVILAETFVKVEHCLLGLPGASVETATKAMSHPQALVQCHNFFATHPQIRAEAAYDTAGSAKMVAESRDKSALAIASKRAGELYGLDILKENLADEEWNITRFFCIAHENN,not soluble
3,MGSDKIHHHHHHMTAGRIRIDEVIKDGEKIIAVSRTSPFYPDGKGGQLGDRGKIGPANVLKVKEKNGYILHYLDAHLEPGDYECEIDPARRKDIACQHTAQHILSAAFLKVADLETVSFHMGERVSTIDLNAPFVLEDVLEEAEDLANEVVRSCERVEILEIEKEEAEKMNLRKLPNVEGKVRVVKIGDFDVTACGGFHVENTGEIGLIKIVDTEKVKKVLTRIYFTAGDRALKDYREKDKLLKSLSRVLTTSTKELLKRAENLLEEVKEKSAKLDKLSEKYAEILSKVAEPEKVGKYYLYHFSGTPEEMKYLPKFLADRKDTIVLLEHPDRIEIVSNWIDCRKIFEKLKDQLNVEGGSSQKRAVITANSASRIVEKLREILKWF,not soluble
4,VTSGTALPSADDLLVLLAVGRTGRFNTAADDLGVNHTTISRRIASLEKSLGGRVLVKAAGGWELTDLGRQALTAAERVEAAVHGLVAEPGRADHLKGVVRVSATDGFSAYIAAPAGALIRSRHPEVSVEIVAITRRASQHRSGLDIEIVVGKPQVHRAEALWLADYTLGLYGAKSYLSAHGTPRQVGDLADHSLVYFIDSMLQVDELDLARRLTVSMRESVTSTNVFVHVEATRASAGIGLLPCFMADRHDDLVRVLPGQVEATLAYWLVARPESLRRPEVAAVVGAIRETVESQRDALAGQ,not soluble
5,IKLVIVTGMSGAGKTVAIQSFEDLGYFTIDNMPPTLVPKFLELAAQSGDTSKIAMVVDMRSRLFFREINSILDSLEINDNINFKILFLDATDTELVSRYKETRRSHPLAADGRVLDGISLERELLAPLKSMSQNVVDTSELTPRQLRKVISKEFSNQDSQSSFRIEVMSFGFKYGIPLDADLVFDVRFLPNPYYKPELRDKTGLDTEVYDYVMSFDESDDFYDHLLALIKPILPGYQNEGKSVLTVAIGCTGGQHRSTAFAHRLSEDLKADWTVNESHRDKNKR,not soluble
6,MEVHAADQYLVAPGEADLLEVHARLAGTGLFPPFPPVELPGGVGGLVARGGFAQTFFFPAEVLGLTFRTPKGRRVRAGGVVVKNVQGYDLVRLFVGSFGLLGRAEEVVLRLRPGRAQAFLRRPFSGSFPRLVPTPRFLFALEDEEGPWLYAYHFGHPKEVERFREAFGGEEARPLDLRPRFPRGLGLGEGPLWDLRFRYQDGGASPPPPPAFLRLARVL,soluble
7,MLMPRQTTPPLSLPLVGGGRFDLSAETSTRWTLICFYRGLHCPICATYLKELEKRVADFAERGVACVAVSSDSEERAQAMAEKVGGGTLRFAYDLPLAEARDWGLYISTSRGKTSIGIEEPALFSEPGLFLVTPERTLYYGAVQTMPFVR,not soluble
8,MGEKIKLEHGAGGEIMEELLRDVILKTLTLKSAGGIGLDALDDGATIPFGDKHIVFTIDGHTVKPLFFPGGDIGRLAVSGTVNDLAVMGAEPIALANSMIIGEGLDMEVLKRVLKSMDETAREVPVPIVTGDTKVVEDKIEMFVITAGIGIAEHPVSDAGAKVGDAVLVSGTIGDHGIALMSHREGIAFETELKSDVAPIWDVVKAVAETIGWENIHAMKDPTRAGLSNALNEIARKSNVGILVREADIPIRPEVRAASEMLGISPYDVANEGKVVMVVAREYAEEALEAMRKTEKGRNAAIIGEVIADYRGKVLLETGIGGKRFMEPPEGDPVPRIC,soluble
9,GSKAEKTLGDFAAEYAKSNRSTCKGCMEKIEKGQVRLSKKMVDPEKPQLGMIDRWYHPGCFVKNREELGFRPEYSASQLKGFSLLATEDKEALKKQLPGVKSEGKRKGDEVDGVDEVAKKK,soluble
10,LINILEQAKQKNTAQGSESTTNKIIGYTTTANVNVDNQNIFSVSKLNNEQFQRKIIVNATEETLDQSQTLQSNESIVLPMPGKYKSTDKNK,soluble
